US12545899B2, “Luciferase enzymes for use with thermostable luciferins in bioluminescent assays” (Promega Corporation, priority 2018, dated 2026)

Key:
[1] = Differential scanning fluorimetry (DSF) analysis; format: physicochemical; parameters: key to DSF Tm: melting temperature in °C (heated 30-95 °C at 1 °C/min); conditions: for DSF Tm (° C.): Table 7B
Protocol: (§1) To conduct the experiment, Sypro Orange (5000×) was diluted in water to 3× and combined with enzymes stored in 50 mM HEPES pH 7.5, 100 mM NaCl, 2 mM EDTA to a final concentration of 5×. Fluorescence was read at 60 second intervals as the reactions were heated at 1° C. per minute from 30-95° C. The change in fluorescence at each minute was calculated and plotted for each temperature in the range.
as §1, with “The luciferase enzyme variants generated were also evaluated using DSF analysis as shown in the representative results provided in Tables 7A and 7B above. To” for “To”, “the experiments,” for “the experiment,”, “in 20” for “in 50”, “7.5, 200” for “7.5, 100”, “NaCl, 1” for “NaCl, 2”

[2] = Brightness of additional luciferase enzyme variants with CS0333; format: biochemical; conditions: for luminescence CS0333 BG / luminescence CS0333 DR / Fold improvement over ATG3707, CS0333 BG / Fold improvement over ATG3707, CS0333 DR: Table 7B
Protocol: (§2) Additional luciferase enzyme variants were generated and evaluated for their stability and activity. To evaluate the additional luciferase enzyme variants, 0.005 mg/ml luciferase enzyme variant was mixed with 1 mM ATP+1 mM substrate in either Bright-Glo™ (BG) or Detection Reagent (DR) buffers. […] (Table 7A is colored according to their relative luminescence values within each column across a red to green color spectrum with the lowest values colored red and the highest values colored green.)

[3] = Brightness of additional luciferase enzyme variants with CS0280; format: biochemical; conditions: for luminescence CS0280 BG / luminescence CS0280 DR / Fold improvement over ATG3707, CS0280 BG / Fold improvement over ATG3707, CS0280 DR: Table 7B
Protocol: as §2

[4] = 1 mM CS0333, Detection Reagent buffer
[5] = 1 mM CS0280, Detection Reagent buffer

Molecule	luminescence CS0333 BG ([2]; 1 mM CS0333, Bright-Glo buffer)	luminescence CS0333 DR [2, 4]	luminescence CS0280 BG ([3]; 1 mM CS0280, Bright-Glo buffer)	luminescence CS0280 DR [3, 5]	DSF Tm (° C.) [1]	Fold improvement over ATG3707, CS0333 BG ([2]; Bright-Glo buffer)	Fold improvement over ATG3707, CS0333 DR ([2]; Detection Reagent buffer)	Fold improvement over ATG3707, CS0280 BG ([3]; Bright-Glo buffer)	Fold improvement over ATG3707, CS0280 DR ([3]; Detection Reagent buffer)	DSF Tm ([1]; Table 7A)	Fold-improvement over ATG3707, CS0333 BG ([2]; Table 7A, 1 mM CS0333, Bright-Glo buffer)	Fold-improvement over ATG3707, CS0333 DR ([2]; Table 7A, 1 mM CS0333, Detection Reagent buffer)	Fold-improvement over ATG3707, CS0280 BG ([3]; Table 7A, 1 mM CS0280, Bright-Glo buffer)	Fold-improvement over ATG3707, CS0280 DR ([3]; Table 7A, 1 mM CS0280, Detection Reagent buffer)
C9671D10: SEQ ID NO: 100; H244W+T344A+I396K+S193A+N228D+L305F+S306P+I109V+C38R+F55I+Y108F+A316W+Y339M+T344I (protein) MADKNILYGPEPFYPLEDGTAGEQMFDALSRYAAIPGRIALTNAHTKENVLYEEILKLSCRLAESFKKYGLKQNDTIAVCSENSLQFFLPVIASLYLGIIVAPVNDKYVERELIHSLGIVKPRIVFCSKNTFQKVLNVKSKLKSIETIIILDLNEDLGGYQCLNNFISQNSDSNLDVKKFKPYSFNRDDQVAAIMFSSGTTGLPKGVMLTHKNIVARFSIAKDPTFGDAINPTSAILTVIPFHWGFGMMTTLGYFTCGFRVVLMHTFEEKLFLQSLQDYKVESTLLVPTLMAFLAKSALVEKYDFPHLKEIASGGWPLSKEIGEMVKKRFKLNFVRQGYGLSEATSAILITPKGDAKPGSTGKIVPLHAVKVVDPTTGKILGPNEPGELYFKGPMKMKGYYNNEEATKAIIDNDGWLRSGDIAYYDNDGHFYIVDRLKSLIKYKGYQVAPAEIEGILLQHPYIVDAGVTGIPDEAAGELPAAGVVVQTGKYLNEQIVQDYVASQVSTAKWLRGGVKFLDEIPKGSTGKIDRKVLRQMLEKHTNGHHHHHHHH	8,464,030	7,772,660	11,877,500	1,439,510	65 °C	1.59	1.82	14.97	49.24					
C7573G10: SEQ ID NO: 69; H244W+T344A+I396K+S193A+N228D+L305F+S306P+I109V+A316M (protein) MADKNILYGPEPFYPLEDGTAGEQMFDALSRYAAIPGCIALTNAHTKENVLYEEFLKLSCRLAESFKKYGLKQNDTIAVCSENSLQFFLPVIASLYLGIIVAPVNDKYIERELIHSLGIVKPRIVFCSKNTFQKVLNVKSKLKSIETIIILDLNEDLGGYQCLNNFISQNSDSNLDVKKFKPYSFNRDDQVAAIMFSSGTTGLPKGVMLTHKNIVARFSIAKDPTFGNAINPTSAILTVIPFHHGFGMMTTLGYFTCGFRVVLMHTFEEKLFLQSLQDYKVESTLLVPTLMAFLAKSALVEKYDLSHLKEIASGGAPLSKEIGEMVKKRFKLNFVRQGYGLTETTSAVLITPKGDAKPGSTGKIVPLHAVKVVDPTTGKILGPNEPGELYFKGPMIMKGYYNNEEATKAIIDNDGWLRSGDIAYYDNDGHFYIVDRLKSLIKYKGYQVAPAEIEGILLQHPYIVDAGVTGIPDEAAGELPAAGVVVQTGKYLNEQIVQDYVASQVSTAKWLRGGVKFLDEIPKGSTGKIDRKVLRQMLEKHTNGHHHHHHHH										62	2.81	2.09	14.12	19.49
C8523E12: SEQ ID NO: 94; H244W+T344A+I396K+S193A+N228D+L305F+S306P+I109V+C38R+F55I+A316W+T342S+V348I (protein) MADKNILYGPEPFYPLEDGTAGEQMFDALSRYAAIPGCIALTNAHTKENVLYEEFLKLSCRLAESFKKYGLKQNDTIAVCSENSLQFFLPVIASLYLGIIVAPVNDKYVERELIHSLGIVQPRIVFCSKNTFQKVLNVKSKLKSIETIIILDLNEDLGGYQCLNNFISQNSDSNLDVKKFKPYSFNRDDQVAAIMFSSGTTGLPKGVMLTHKNIVARFSIAKDPTFGDAINPTSAILTVIPFHWGFGMMTTLGYFTCGFRAVLMHTFEEKLFLQSLQDYKVESTLLIPTLMAFLAKSALVEKYDFPHLKEIASGGAPLSKEIGEMVKKRFKLNFVRQGYGLTEATSAVLITPKGDAKPGSTGKIVPLHAVKVVDPTTGKILGPNEPGELYFKGPMKMKGYYNNEEATKAIIDNDGWLRSGDIAYYDNDGHFYIVDRLKSLIKYKGYQVAPAEIEGILLQHPYIVDAGVTGIPDEAAGELPAAGVVVQTGKYLNEQIVQDYVASQVSTAKWLRGGVKFLDEIPKGSTGKIDRKVLRQMLEKHTNGHHHHHHHH	20,331,700	15,418,100	1,996,020	213,031	67 °C	3.82	3.62	2.52	7.29					

Further lines, with some results ahead:

luminescence CS0333 BG ([2]; 1 mM CS0333, Bright-Glo buffer)	luminescence CS0333 DR [2, 4]	luminescence CS0280 BG ([3]; 1 mM CS0280, Bright-Glo buffer)	luminescence CS0280 DR [3, 5]	Molecule	DSF Tm (° C.) [1]	Fold improvement over ATG3707, CS0333 BG ([2]; Bright-Glo buffer)	Fold improvement over ATG3707, CS0333 DR ([2]; Detection Reagent buffer)	Fold improvement over ATG3707, CS0280 BG ([3]; Bright-Glo buffer)	Fold improvement over ATG3707, CS0280 DR ([3]; Detection Reagent buffer)	DSF Tm ([1]; Table 7A)	Fold-improvement over ATG3707, CS0333 BG ([2]; Table 7A, 1 mM CS0333, Bright-Glo buffer)	Fold-improvement over ATG3707, CS0333 DR ([2]; Table 7A, 1 mM CS0333, Detection Reagent buffer)	Fold-improvement over ATG3707, CS0280 BG ([3]; Table 7A, 1 mM CS0280, Bright-Glo buffer)	Fold-improvement over ATG3707, CS0280 DR ([3]; Table 7A, 1 mM CS0280, Detection Reagent buffer)
15,784,700	11,887,900	1,642,120	83,763	C9644H7: SEQ ID NO: 97; H244W+T344A+I396K+S193A+N228D+L305F+S306P+I109V+C38R+A316W+T342S+V348I (protein) MADKNILYGPEPFYPLEDGTAGEQMFDALSRYAAIPGRIALTNAHTKENVLYEEFLKLSCRLAESFKKYGLKQNDTIAVCSENSLQFFLPVIASLYLGIIVAPVNDKYVERELIHSLGIVKPRIVFCSKNTFQKVLNVKSKLKSIETIIILDLNEDLGGYQCLNNFISQNSDSNLDVKKFKPYSFNRDDQVAAIMFSSGTTGLPNGVMLTHKNIVARFSIAKDPTFGDAINPTSAILTVIPFHWGFGMMTTLGYFTCGFRVVLMHTFEEKLFLQSLQDYKVESTLLVPTLMAFLAKSALVEKYDFPHLKEIASGGWPLSKEIGEMVKKRFKLNFVRQGYGLSEATSAILITPKGDAKPGSTGKIVPLHAVKVVDPTTGKILGPNEPGELYFKGPMKMKGYYNNEEATKAIIDNDGWLRSGDIAYYDNDGHFYIVDRLKSLIKYKGYQVAPAEIEGILLQHPYIVDAGVTGIPDEAAGELPAAGVVVQTGKYLNEQIVQDYVASQVSTAKWLRGGVKFLDEIPKGSTGKIDRKVLRQMLEKHTNGHHHHHHHH	59 °C	2.97	2.79	2.07	2.87					
12,508,600	11,647,400	7,349,470	984,923	C9679H10: SEQ ID NO: 99; H244W+T344A+I396K+S193A+N228D+L305F+S306P+I109V+A316W+T344I (protein) MADKNILYGPEPFYPLEDGTAGEQMFDALSRYAAIPGRIALTNAHTKENVLYEEILKLSCRLAESFKKYGLKQNDTIAVCSENSLQFFLPVIASLYLGIIVAPVNDKYVERELIHSLGIVKPRIVFCSKNTFQKVLNVKSKLKSIETIIILDLNEDLGGYQCLNNFISQNSDSNLDVKKFKPYSFNRDDQVAAIMFSSGTTGLPKGVMLTHKNIVARFSIAKDPTFGDAINPTSAILTVIPFHWGFGMMTTLGYFTCGFRVVLMHTFEEKLFLQSLQDYKVESTLLVPTLMAFLAKSALVEKYDFPHLKEIASGGWPLSKEIGEMVKKRFKLNFVRQGYGLSEATSAILITPKGDAKPGSTGKIVPLHAVKVVDPTTGKILGPNEPGELYFKGPMKMKGYYNNEEATKAIIDNDGWLRSGDIAYYDNDGHFYIVDRLKSLIKYKGYQVAPAEIEGILLQHPYIVDAGVTGIPDEAAGELPAAGVVVQTGKYLNEQIVQDYVASQVSTAKWLRGGVKFLDEIPKGSTGKIDRKVLRQMLEKHTNGHHHHHHHH	65 °C	2.35	2.73	9.26	33.69					
13,322,000	11,733,600	7,501,350	891,010	C9649G7: SEQ ID NO: 98; H244W+T344A+I396K+S193A+N228D+L305F+S306P+I109V+C38R+F55I+K121Q+A316W+Y339M+T344I+V348I (protein) MADKNILYGPEPFYPLEDGTAGEQMFDALSRYAAIPGRIALTNAHTKENVLYEEILKLSCRLAESFKKYGLKQNDTIAVCSENSLQFFLPVIASLYLGIIVAPVNDKYVERELIHSLGIVKPRIVFCSKNTFQKVLNVKSKLKSIETIIILDLNEDLGGYQCLNNFISQNSDSNLDVKKFKPYSFNRDDQVAAIMFSSGTTGLPKGVMLTHKNIVARFSIAKDPTFGDAINPTSAILTVIPFHWGFGMMTTLGYFTCGFRVVLMHTFEEKLFLQSLQDYKVESTLLVPTLMAFLAKSALVEKYDFPHLKEIASGGWPLSKEIGEMVKKRFKLNFVRQGYGLSEATSAILITPKGDAKPGSTGKIVPLHAVKVVDPTTGKILGPNEPGELYFKGPMKMKGYYNNEEATKAIIDNDGWLRSGDIAYYDNDGHFYIVDRLKSLIKYKGYQVAPAEIEGILLQHPYIVDAGVTGIPDEAAGELPAAGVVVQTGKYLNEQIVQDYVASQVSTAKWLRGGVKFLDEIPKGSTGKIDRKVLRQMLEKHTNGHHHHHHHH	51 °C	2.50	2.75	9.46	30.48					
